{"source": "FireProtDB (doi:10.1021/bi047926u)", "conditions": "Bacillus subtilis (strain 168); pH 7.2; Thermal; CD; TES-KOH 21 mM; KCl 4 mM; reversible: No; whole UniProt chain shown", "note": "“And” between values parts separate entries of the source, which are not always exact repeats. Equal entries are not always repeated."}
{"protein": "Manganese-dependent inorganic pyrophosphatase wild type, P37487 (protein) MEKILIFGHQNPDTDTICSAIAYADLKNKLGFNAEPVRLGQVNGETQYALDYFKQESPRLVETAANEVNGVILVDHNERQQSIKDIEEVQVLEVIDHHRIANFETAEPLYYRAEPVGCTATILNKMYKENNVKIEKEIAGLMLSAIISDSLLFKSPTCTDQDVAAAKELAEIAGVDAEEYGLNMLKAGADLSKKTVEELISLDAKEFTLGSKKVEIAQVNTVDIEDVKKRQAELEAVISKVVAEKNLDLFLLVITDILENDSLALAIGNEAAKVEKAFNVTLENNTALLKGVVSRKKQVVPVLTDAMAE", "values": [{"measurement": "Tm", "value": "50 °C and 46 °C"}]}
